Measured values taken from patent US20080089862.

Test system: engineered beta-galactosidase reporter protein with the NS3-cleavable NS5A/B site between residues 2

Substance	β-galactosidase units (ONPG hydrolysis, Miller units), pMGT15 [Miller units]	β-galactosidase units (ONPG hydrolysis, Miller units), pEB13-lacZ-NS5A/B + pMALc-NN-scNS3 [Miller units]	β-galactosidase units (ONPG hydrolysis, Miller units), pMGT14 [Miller units]
MBP-scNS3mut (inactive mutant S-1165-A NS3)	160		
MBP-scNS3 (E. coli maltose binding protein fused to the NS4A peptide followed by the NS3 protease domain)		20	60
